# *1 amine or outer side, *2 acyl side, *3 side chain or, on linkers, in order; H or OH if unused. Where no end group is shown, it is not given here. Side-chain parts run from the residue outwards. [ ]: non-standard residue; d: D form. The star is where a group is joined. C18 diacid = O=C(O)CCCCCCCCCCCCCCCCC(=O)*; C16 diacid = O=C(O)CCCCCCCCCCCCCCC(=O)*; γGlu = O=C(O)[C@H](CCC(=O)[*:2])N[*:1]; NMeI = CC[C@H](C)[C@H](NC)C(=O)O; αMeL = CC(C)C[C@](C)(N)C(=O)O; Api = NC1(C(=O)O)CCNCC1; AEEA = NCCOCCOCC(=O)O; Aib = CC(C)(N)C(=O)O
# T1: CRF1R receptor (UniProt P34998 24-415, limits assumed)
# T1 sequence (looked up): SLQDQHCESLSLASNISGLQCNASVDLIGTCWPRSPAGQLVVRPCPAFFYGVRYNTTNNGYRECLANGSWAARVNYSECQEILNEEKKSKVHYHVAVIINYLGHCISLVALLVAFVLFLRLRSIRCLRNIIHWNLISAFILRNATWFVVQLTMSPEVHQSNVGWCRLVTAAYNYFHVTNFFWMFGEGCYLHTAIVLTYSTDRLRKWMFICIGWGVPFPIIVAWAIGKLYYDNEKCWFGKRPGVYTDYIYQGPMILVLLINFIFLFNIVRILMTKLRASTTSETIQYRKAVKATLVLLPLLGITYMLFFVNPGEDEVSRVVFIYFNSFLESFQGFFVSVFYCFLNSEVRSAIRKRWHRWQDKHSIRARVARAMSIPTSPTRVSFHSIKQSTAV
# B1: SEQ ID NO 68 (peptide)
# peptide: [NMeI]VLSLD[dV]PIKLK([γGlu-C16 diacid])KILLEQEKQKKQREQAETNAQILAQV-NH2
# modifications: N-terminus assumed
# SMILES: CC[C@H](C)[C@H](NC)C(=O)N[C@H](C(=O)N[C@@H](CC(C)C)C(=O)N[C@@H](CO)C(=O)N[C@@H](CC(C)C)C(=O)N[C@@H](CC(=O)O)C(=O)N[C@@H](C(=O)N1CCC[C@H]1C(=O)N[C@H](C(=O)N[C@@H](CCCCN)C(=O)N[C@@H](CC(C)C)C(=O)N[C@@H](CCCCNC(=O)CC[C@H](NC(=O)CCCCCCCCCCCCCCC(=O)O)C(=O)O)C(=O)N[C@@H](CCCCN)C(=O)N[C@H](C(=O)N[C@@H](CC(C)C)C(=O)N[C@@H](CC(C)C)C(=O)N[C@@H](CCC(=O)O)C(=O)N[C@@H](CCC(N)=O)C(=O)N[C@@H](CCC(=O)O)C(=O)N[C@@H](CCCCN)C(=O)N[C@@H](CCC(N)=O)C(=O)N[C@@H](CCCCN)C(=O)N[C@@H](CCCCN)C(=O)N[C@@H](CCC(N)=O)C(=O)N[C@@H](CCCNC(=N)N)C(=O)N[C@@H](CCC(=O)O)C(=O)N[C@@H](CCC(N)=O)C(=O)N[C@@H](C)C(=O)N[C@@H](CCC(=O)O)C(=O)N[C@H](C(=O)N[C@@H](CC(N)=O)C(=O)N[C@@H](C)C(=O)N[C@@H](CCC(N)=O)C(=O)N[C@H](C(=O)N[C@@H](CC(C)C)C(=O)N[C@@H](C)C(=O)N[C@@H](CCC(N)=O)C(=O)N[C@H](C(N)=O)C(C)C)[C@@H](C)CC)[C@@H](C)O)[C@@H](C)CC)[C@@H](C)CC)C(C)C)C(C)C
# B2: SEQ ID NO 109 (peptide)
# peptide: Ac-IVLSLD[dV]PIKLK([AEEA-AEEA-γGlu-C18 diacid])KILLEQEKQKKQREQAETN[Api]QILAQV-NH2
# SMILES: CC[C@H](C)[C@H](NC(C)=O)C(=O)N[C@H](C(=O)N[C@@H](CC(C)C)C(=O)N[C@@H](CO)C(=O)N[C@@H](CC(C)C)C(=O)N[C@@H](CC(=O)O)C(=O)N[C@@H](C(=O)N1CCC[C@H]1C(=O)N[C@H](C(=O)N[C@@H](CCCCN)C(=O)N[C@@H](CC(C)C)C(=O)N[C@@H](CCCCNC(=O)COCCOCCNC(=O)COCCOCCNC(=O)CC[C@H](NC(=O)CCCCCCCCCCCCCCCCC(=O)O)C(=O)O)C(=O)N[C@@H](CCCCN)C(=O)N[C@H](C(=O)N[C@@H](CC(C)C)C(=O)N[C@@H](CC(C)C)C(=O)N[C@@H](CCC(=O)O)C(=O)N[C@@H](CCC(N)=O)C(=O)N[C@@H](CCC(=O)O)C(=O)N[C@@H](CCCCN)C(=O)N[C@@H](CCC(N)=O)C(=O)N[C@@H](CCCCN)C(=O)N[C@@H](CCCCN)C(=O)N[C@@H](CCC(N)=O)C(=O)N[C@@H](CCCNC(=N)N)C(=O)N[C@@H](CCC(=O)O)C(=O)N[C@@H](CCC(N)=O)C(=O)N[C@@H](C)C(=O)N[C@@H](CCC(=O)O)C(=O)N[C@H](C(=O)N[C@@H](CC(N)=O)C(=O)NC1(C(=O)N[C@@H](CCC(N)=O)C(=O)N[C@H](C(=O)N[C@@H](CC(C)C)C(=O)N[C@@H](C)C(=O)N[C@@H](CCC(N)=O)C(=O)N[C@H](C(N)=O)C(C)C)[C@@H](C)CC)CCNCC1)[C@@H](C)O)[C@@H](C)CC)[C@@H](C)CC)C(C)C)C(C)C
# B3: SEQ ID NO 98 (peptide)
# peptide: Ac-IVLSLD[dV]PIKLK([AEEA-AEEA-γGlu-C18 diacid])KILLEQEKQKKQREQAETN[Aib]QILAQV-NH2
# SMILES: CC[C@H](C)[C@H](NC(C)=O)C(=O)N[C@H](C(=O)N[C@@H](CC(C)C)C(=O)N[C@@H](CO)C(=O)N[C@@H](CC(C)C)C(=O)N[C@@H](CC(=O)O)C(=O)N[C@@H](C(=O)N1CCC[C@H]1C(=O)N[C@H](C(=O)N[C@@H](CCCCN)C(=O)N[C@@H](CC(C)C)C(=O)N[C@@H](CCCCNC(=O)COCCOCCNC(=O)COCCOCCNC(=O)CC[C@H](NC(=O)CCCCCCCCCCCCCCCCC(=O)O)C(=O)O)C(=O)N[C@@H](CCCCN)C(=O)N[C@H](C(=O)N[C@@H](CC(C)C)C(=O)N[C@@H](CC(C)C)C(=O)N[C@@H](CCC(=O)O)C(=O)N[C@@H](CCC(N)=O)C(=O)N[C@@H](CCC(=O)O)C(=O)N[C@@H](CCCCN)C(=O)N[C@@H](CCC(N)=O)C(=O)N[C@@H](CCCCN)C(=O)N[C@@H](CCCCN)C(=O)N[C@@H](CCC(N)=O)C(=O)N[C@@H](CCCNC(=N)N)C(=O)N[C@@H](CCC(=O)O)C(=O)N[C@@H](CCC(N)=O)C(=O)N[C@@H](C)C(=O)N[C@@H](CCC(=O)O)C(=O)N[C@H](C(=O)N[C@@H](CC(N)=O)C(=O)NC(C)(C)C(=O)N[C@@H](CCC(N)=O)C(=O)N[C@H](C(=O)N[C@@H](CC(C)C)C(=O)N[C@@H](C)C(=O)N[C@@H](CCC(N)=O)C(=O)N[C@H](C(N)=O)C(C)C)[C@@H](C)CC)[C@@H](C)O)[C@@H](C)CC)[C@@H](C)CC)C(C)C)C(C)C
# B4: SEQ ID NO 101 (peptide)
# peptide: Ac-VLSLD[dV]PIKLK([AEEA-AEEA-γGlu-C18 diacid])KILLEQEKQKKQREQAETNAQILAQV-NH2
# SMILES: CC[C@H](C)[C@H](NC(=O)[C@H](CCC(N)=O)NC(=O)[C@H](C)NC(=O)[C@H](CC(N)=O)NC(=O)[C@@H](NC(=O)[C@H](CCC(=O)O)NC(=O)[C@H](C)NC(=O)[C@H](CCC(N)=O)NC(=O)[C@H](CCC(=O)O)NC(=O)[C@H](CCCNC(=N)N)NC(=O)[C@H](CCC(N)=O)NC(=O)[C@H](CCCCN)NC(=O)[C@H](CCCCN)NC(=O)[C@H](CCC(N)=O)NC(=O)[C@H](CCCCN)NC(=O)[C@H](CCC(=O)O)NC(=O)[C@H](CCC(N)=O)NC(=O)[C@H](CCC(=O)O)NC(=O)[C@H](CC(C)C)NC(=O)[C@H](CC(C)C)NC(=O)[C@@H](NC(=O)[C@H](CCCCN)NC(=O)[C@H](CCCCNC(=O)COCCOCCNC(=O)COCCOCCNC(=O)CC[C@H](NC(=O)CCCCCCCCCCCCCCCCC(=O)O)C(=O)O)NC(=O)[C@H](CC(C)C)NC(=O)[C@H](CCCCN)NC(=O)[C@@H](NC(=O)[C@@H]1CCCN1C(=O)[C@H](NC(=O)[C@H](CC(=O)O)NC(=O)[C@H](CC(C)C)NC(=O)[C@H](CO)NC(=O)[C@H](CC(C)C)NC(=O)[C@@H](NC(C)=O)C(C)C)C(C)C)[C@@H](C)CC)[C@@H](C)CC)[C@@H](C)O)C(=O)N[C@@H](CC(C)C)C(=O)N[C@@H](C)C(=O)N[C@@H](CCC(N)=O)C(=O)N[C@H](C(N)=O)C(C)C
# B5: SEQ ID NO 112 (peptide)
# peptide: Ac-IVLSLD[dV]PIK[αMeL]K([AEEA-AEEA-γGlu-C18 diacid])KILLEQEKQKKQREQAETNAQILAQV-NH2
# SMILES: CC[C@H](C)[C@H](NC(C)=O)C(=O)N[C@H](C(=O)N[C@@H](CC(C)C)C(=O)N[C@@H](CO)C(=O)N[C@@H](CC(C)C)C(=O)N[C@@H](CC(=O)O)C(=O)N[C@@H](C(=O)N1CCC[C@H]1C(=O)N[C@H](C(=O)N[C@@H](CCCCN)C(=O)N[C@@](C)(CC(C)C)C(=O)N[C@@H](CCCCNC(=O)COCCOCCNC(=O)COCCOCCNC(=O)CC[C@H](NC(=O)CCCCCCCCCCCCCCCCC(=O)O)C(=O)O)C(=O)N[C@@H](CCCCN)C(=O)N[C@H](C(=O)N[C@@H](CC(C)C)C(=O)N[C@@H](CC(C)C)C(=O)N[C@@H](CCC(=O)O)C(=O)N[C@@H](CCC(N)=O)C(=O)N[C@@H](CCC(=O)O)C(=O)N[C@@H](CCCCN)C(=O)N[C@@H](CCC(N)=O)C(=O)N[C@@H](CCCCN)C(=O)N[C@@H](CCCCN)C(=O)N[C@@H](CCC(N)=O)C(=O)N[C@@H](CCCNC(=N)N)C(=O)N[C@@H](CCC(=O)O)C(=O)N[C@@H](CCC(N)=O)C(=O)N[C@@H](C)C(=O)N[C@@H](CCC(=O)O)C(=O)N[C@H](C(=O)N[C@@H](CC(N)=O)C(=O)N[C@@H](C)C(=O)N[C@@H](CCC(N)=O)C(=O)N[C@H](C(=O)N[C@@H](CC(C)C)C(=O)N[C@@H](C)C(=O)N[C@@H](CCC(N)=O)C(=O)N[C@H](C(N)=O)C(C)C)[C@@H](C)CC)[C@@H](C)O)[C@@H](C)CC)[C@@H](C)CC)C(C)C)C(C)C
# Target: human corticotropin-releasing factor 2a (CRF2a receptor) (human), Q13324
# Sequence (Q13324 20-411): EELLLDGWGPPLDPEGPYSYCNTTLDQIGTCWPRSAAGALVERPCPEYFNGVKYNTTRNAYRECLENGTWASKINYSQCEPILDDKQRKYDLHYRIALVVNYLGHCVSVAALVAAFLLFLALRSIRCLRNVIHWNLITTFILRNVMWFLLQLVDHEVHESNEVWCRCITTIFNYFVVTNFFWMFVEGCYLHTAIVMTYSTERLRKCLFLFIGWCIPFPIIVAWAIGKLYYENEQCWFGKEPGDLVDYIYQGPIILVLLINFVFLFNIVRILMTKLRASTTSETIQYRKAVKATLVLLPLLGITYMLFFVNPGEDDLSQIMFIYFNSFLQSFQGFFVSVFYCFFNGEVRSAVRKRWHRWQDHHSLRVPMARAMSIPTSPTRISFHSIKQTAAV
# Experiment: cell-based or functional assay
row,EC50 [nM] (cAMP),Binder
1,0.05,B1
2,1,B2
3,0.55,B3
4,1.74,B4
5,0.28,B5

# Target: T1, CRF1R receptor
# Experiment: cell-based or functional assay
row,Emax (% I) [%],Binder
1,8,B1
2,4,B2
3,-2,B3
4,0,B4
5,3,B5

# From patent US20260001928A1 (CORTERIA PHARMACEUTICALS, priority 2022, published 2026)
